Assay results as given in publication PMC13385800 (2026).

B1: TBLR1-LgBiT wild type [not stated] / SETD5-SmBiT [not stated] (parent complex)
chain 1: MSISSDEVNFLVYRYLQESGFSHSAFTFGIESHISQSNINGALVPPAALISIIQKGLQYVEAEVSINEDGTLFDGRPIESLSLIDAVMPDVVQTRQQAYRDKLAQQQAAAAAAAAAAASQQGSAKNGENTANGEENGAHTIANNHTDMMEVDGDVEIPPNKAVVLRGHESEVFICAWNPVSDLLASGSGDSTARIWNLSENSTSGSTQLVLRHCIREGGQDVPSNKDVTSLDWNSEGTLLATGSYDGFARIWTKDGNLASTLGQHKGPIFALKWNKKGNFILSAGVDKTTIIWDAHTGEAKQQFPFHSAPALDVDWQSNNTFASCSTDMCIHVCKLGQDRPIKTFQGHTNEVNAIKWDPTGNLLASCSDDMTLKIWSMKQDNCVHDLQAHNKEIYTIKWSPTGPGTNNPNANLMLASASFDSTVRLWDVDRGICIHTLTKHQEPVYSVAFSPDGRYLASGSFDKCVHIWNTQTGALVHSYRGTGGIFEVCWNAAGDKVGASASDGSVCVLDLRK
chain 2: MSIAIPLGVTTSDTSYSDMAAGSDPESVEASPAVNEKSVYSTHNYGTTQRHGCRGLPYATIIPRSDLNGLPSPVEERCGDSPNSEGETVPTWCPCGLSQDGFLLNCDKCRGMSRGKVIRLHRRKQDNISGGDSSATESWDEELSPSTVLYTATQHTPTSITLTVRRTKPKKRKKSPEKGRAAPKTKKIKNSPSEAQNLDENTTEGWENRIRLWTDQYEEAFTNQYSADVQNALEQHLHSSKEFVGKPTILDTINKTELACNNTVIGSQMQLQLGRVTRVQKHRKILRAARDLALDTLIIEYRGKVMLRQQFEVNGHFFKKPYPFVLFYSKFNGVEMCVDARTFGNDARFIRRSCTPNAEVRHMIADGMIHLCIYAVSAITKDAEVTIAFDYEYSNCNYKVDCACHKGNRNCPIQKRNPNATELPLLPPPPSLPTIGAETRRRKARRKELEMEQQNEASEENNDQQSQEVPEKVTVSSDHEEVDNPEEKPEEEKEEVIDDQENLAHSRRTREDRKVEAIMHAFENLEKRKKRRDQPLEQSNSDVEITTTTSETPVGEETKTEAPESEVSNSVSNVTIPSTPQSVGVNTRRSSQAGDIAAEKLVPKPPPAKPSRPRPKSRISRYRTSSAQRLKRQKQANAQQAELSQAALEEGGSNSLVTPTEAGSLDSSGENRPLTGSDPTVVSITGSHVNRAASKYPKTKKYLVTEWLNDKAEKQECPVECPLRITTDPTVLATTLNMLPGLIHSPLICTTPKHYIRFGSPFIPERRRRPLLPDGTFSSCKKRWIKQALEEGMTQTSSVPQETRTQHLYQSNENSSSSSICKDNADLLSPLKKWKSRYLMEQNVTKLLRPLSPVTPPPPNSGSKSPQLATPGSSHPGEEECRNGYSLMFSPVTSLTTASRCNTPLQFELCHRKDLDLAKVGYLDSNTNSCADRPSLLNSGHSDLAPHPSLGPTSETGFPSRSGDGHQTLVRNSDQAFRTEFNLMYAYSPLNAMPRADGLYRGSPLVGDRKPLHLDGGYCSPAEGFSSRYEHGLMKDLSRGSLSPGGERACEGVPSAPQNPPQRKKVSLLEYRKRKQEAKENSAGGGGDSAQSKSKSAGAGQGSSNSVSDTGAHGVQGSSARTPSSPHKKFSPSHSSMSHLEAVSPSDSRGTSSSHCRPQENISSRWMVPTSVERLREGGSIPKVLRSSVRVAQKGEPSPTWESNITEKDSDPADGEGPETLSSALSKGATVYSPSRYSYQLLQCDSPRTESQSLLQQSSSPFRGHPTQSPGYSYRTTALRPGNPPSHGSSESSLSSTSYSSPAHPVSTDSLAPFTGTPGYFSSQPHSGNSTGSNLPRRSCPSSAASPTLQGPSDSPTSDSVSQSSTGTLSSTSFPQNSRSSLPSDLRTISLPSAGQSAVYQASRVSAVSNSQHYPHRGSGGVHQYRLQPLQGSGVKTQTGLS

Variants of: B1
Assay: NanoLuc complementation assay; n = 6–7 independent transfections per TBLR1 mutant; read off a plot

Variant | ratio to parent
chain 1 MSISSDEVNFLVYRYLQESGFSHSAFTFGIESHISQSNINGALVPPAALISIIQKGLQYVEAEVSINEDGTLFDGRPIESLSLIDAVMPDVVQTRQQAYRDKLAQQQAAAAAAAAAAASQQGSAKNGENTANGEENGAHTIANNHTDMMEVDGDVEIPPNKAVVLRGHESEVFICAWNPVSDLLASGSGDSTARIWNLSENSTSGSTQLVLRHCIREGGQDVPSNKDVTSLDWNSEGTLLATGSYDGFARIWTKDGNLASTLGQHKGPIFALKWNKKGNFILSAGVDKTTIIWDAHTGEAKQQFPFHSAPPLDVDWQSNNTFASCSTDMCIHVCKLGQDRPIKTFQGHTNEVNAIKWDPTGNLLASCSDDMTLKIWSMKQDNCVHDLQAHNKEIYTIKWSPTGPGTNNPNANLMLASASFDSTVRLWDVDRGICIHTLTKHQEPVYSVAFSPDGRYLASGSFDKCVHIWNTQTGALVHSYRGTGGIFEVCWNAAGDKVGASASDGSVCVLDLRK [chain 1 A311P] | ~0.55
chain 1 MSISSDEVNFLVYRYLQESGFSHSAFTFGIESHISQSNINGALVPPAALISIIQKGLQYVEAEVSINEDGTLFDGRPIESLSLIDAVMPDVVQTRQQAYRDKLAQQQAAAAAAAAAAASQQGSAKNGENTANGEENGAHTIANNHTDMMEVDGDVEIPPNKAVVLRGHESEVFICAWNPVSDLLASGSGDSTARIWNLSENSTSGSTQLVLRHCIREGGQDVPSNKDVTSLDWNSEGTLLATGSYDGFARIWTKDGNLASTLGQHKGPIFALKWNKKGNFILSAGVDKTTIIWDAHTGEAKQQFPFHSAPALDVDWQSNNTFASCSTDMCIHVCKLGQDRPIKTFQGHTNEVNAIKWDPTGNLLASCSDDMTLKIWSMKQDNCVHDLQAHNKEIYTIKWSPTGPGTNNPNANLMLASASFDSTVRLWDVDRGICIHTLTKRQEPVYSVAFSPDGRYLASGSFDKCVHIWNTQTGALVHSYRGTGGIFEVCWNAAGDKVGASASDGSVCVLDLRK [chain 1 H441R] | ~0.55
chain 1 MSISSDEVNFLVYRYLQESGFSHSAFTFGIESHISQSNINGALVPPAALISIIQKGLQYVEAEVSINEDGTLFDGRPIESLSLIDAVMPDVVQTRQQAYRDKLAQQQAAAAAAAAAAASQQGSAKNGENTANGEENGAHTIANNHTDMMEVDGDVEIPPNKAVVLRGHESEVFICAWNPVSDLLASGSGDSTARIWNLSENSTSGSTQLVLRHCIREGGQDVPSNKDVTSLDWNSEGTLLATGSYDGFARIWTKDGNLASTLGQHKGPIFALKWNKKGNFILSAGVDKTTIIWDAHTGEAKQQFPFHSAPALDVDWQSNNTFASCSTDMCIHVCKLGQDRPIKTFQGHTNEVNAIKWDPTGNLLASCSEDMTLKIWSMKQDNCVHDLQAHNKEIYTIKWSPTGPGTNNPNANLMLASASFDSTVRLWDVDRGICIHTLTKHQEPVYSVAFSPDGRYLASGSFDKCVHIWNTQTGALVHSYRGTGGIFEVCWNAAGDKVGASASDGSVCVLDLRK [chain 1 D369E] | ~0.15

Other lines, results leading:

ratio to parent | Variant
~1.1 | chain 1 MSISSDEVNFLVYRYLQESGFSHSAFTFGIESHISQSNINGALVPPAALISIIQKGLQYVEAEVSINEDGTLFDGRPIESLSLIDAVMPDVVQTRQQAYRDKLAQQQAAAAAAAAAAASQQGSAKNGENTANGEENGAHTIANNHTDMMEVDGDVEIPPNKAVVLRGHESEVFICAWNPVSDLLASGSGDSTARIWNLSENSTSGSTQLVLRHCIREGGQDVPSNKDVTSLDWNSEGTLLATGSYDGFARIWTKDGNLASTLGQHKGPIFALKWNKKGNFILSAGVDKTTIIWDAHTGEAKQQFPFHSAPALDVDWQSNNTFASCSTDMCIHVCKLGQDRPIKTFQGHTNEVNAIKWDPTGNLLASCSDDMTLKIWSMKQDNCVHDLQAHNKEIYTIKWSPTGPGTNNPNANLMLASASFDSTVRLWDVDRGICIHTLTKHQEPVDSVAFSPDGRYLASGSFDKCVHIWNTQTGALVHSYRGTGGIFEVCWNAAGDKVGASASDGSVCVLDLRK [chain 1 Y446D]
~0.87 | chain 1 MSISSDEVNFLVYRYLQESGFSHSAFTFGIESHISQSNINGALVPPAALISIIQKGLQYVEAEVSINEDGTLFDGRPIESLSLIDAVMPDVVQTRQQAYRDKLAQQQAAAAAAAAAAASQQGSAKNGENTANGEENGAHTIANNHTDMMEVDGDVEIPPNKAVVLRGHESEVFICAWNPVSDLLASGSGDSTARIWNLSENSTSGSTQLVLRHCIREGGQDVPSNKDVTSLDWNSEGTLLATGSYDGFARIWTKDGNLASTLGQHKGPIFALKWNKKGNFILSAGVDKTTIIWDAHTGEAKQQFPFHSAPALDVDWQSNNTFASCSTDMCIHVCKLGQDRPIKTFQGHTNEVNAIKWDPTGNLLASCSDDMTLKIWSMKQDNCVHDLQAHNKEICTIKWSPTGPGTNNPNANLMLASASFDSTVRLWDVDRGICIHTLTKHQEPVYSVAFSPDGRYLASGSFDKCVHIWNTQTGALVHSYRGTGGIFEVCWNAAGDKVGASASDGSVCVLDLRK [chain 1 Y395C]
